Test results reported in the DeepSol protein solubility set.

experiment: soluble on expression in E. coli; label from the status in PepcDB or PDB records

| Sequence | soluble on expression in E. coli |
| --- | --- |
| MYRPKDHGWVEVIVGPMYSGKSEELIRRIRRAKIAKQKIQVFKPEIDNRYSKEDVVSHMGEKEQAVAIKNSREILKYFEEDTEVIAIDEVQFFDDEIVEIVNKIAESGRRVICAGLDMDFRGKPFGPIPELMAIAEFVDKIQAICVVCGNPATRTQRLINGKPAFYDDPVVLIGAMESYEARCRKCHVVPQKKEVMAGDPLEHHHHHH | soluble |
| PKATAQMEGRLQEFLTAYAPGARLALADGVLGFIHHQIVELARDCLAKSGENLVTSRYFLEMQEKLERLLQDAHERSDSEEVSFIVQLVRKLLIIISRPAR | soluble |
| RFTPRWIVRFLVENSLGRLWAEMHPDSRLKDSLSYLVPIENSQAHPLKLVRDITFLDPSCGSMHFGLVAFDLFAEMYREEFEKAGQPGWPENPSVNAEDEIASSIIAHNLHGIDIDLRSVQISALTLLLRARTLSPKCAFTDRNLACANVEQTSGGKLETLIAAAKFSHPIYERVLRTLAAEMKDSDQLGSLLRLERSLERLVIEERRKAEENKQFLLSFPGISPEQFDTQAGIEEFFDLLSDQLLRHLDFFVRASREMGGDPGHIVNEAAKGLRYMQLVSHHYDVVATNPPYMSRRNMSDVIAKHLDKHYPETKGDLYAAFIARCLELVAPQGKVAMVTQQSFMFIGTYEKFRSNLLSRVTVETMAHLGPKAFPNITGEKVNTTAFVIRREPDG | not soluble |
| MSLNSAMDKILVVNEGGELLRFKAMQQDLLYESLLKNHCYHTAYYLNSFDRLSLQENRARALFLVNKPDANTIFAKYQADRGYGDALELGVVYRTEFEKMLSVSVSGEEYHVTFSSVLSIINGNDVRKIRILSEGTVIRTTPRFPENTSGFFFRTYNQQYEMEGHHHHHH | soluble |
| KDLKIVMLTDIHLGKNLHENFLDKLITKVNLQSPDMVVIVGDLIDTNPKDLKNYISKLNDFNSTYGTFYALGNHEYYHGINEVLDLLRKHTNMKILVNQNLDLGFIDIAGLGDLAGLDRGLYAPDLARIKVDLNTSKASILLTHQPKTALLYDLSDFDLVLSGHTHGGQIFPFMFLV | not soluble |
| MGGVTSKVNVDVVQEQVKKDPVVMYTKTSCTFCNRAKDLFSDVRVAYKEVNLDTLKASQPDDYLGIVNGLVYTTRQTSVPQIFVCGRFIGGYTELDALRNSGHLFEAIAQCTGENSPKE | not soluble |
| MSLQVSQYLYQNAQSIWGDCISHPFVQGIGRGTLERDKFRFYIIQDYLFLLEYAKVFALGVVKACDEAVMREFSNAIQDILNNEMSIHNHYIRELQITQKELQNACPTLANKSYTSYMLAEGFKGSIKEVAVAVLACGWSYLVIAQNLSQIPNALEDAFYGHWIKGYSSKEFQACVTWNINLLDSLALASSKQEIEKLKEIFIATSEYEYQFWDMAYQSEGGSHHHHHH | soluble |
| MNLFFEKTGATNVAEFSVSEIAGALKRVVEEKFGYVRVRGEISGYRGAHASGHAYFALKDDKARLEAVIWRGIMEKLKFPPEEGMEVIAVGKLTTYPGSSKYQIVIEALEPTGVGALMTLLENRKKKFAEEGLFDEEKKKPLPYMPKIIGVVTSPTGAVIRDIIHRISDRFPLHILVWPVRVQGETSGREVAAAVKGFNVLPLEGLIPKPDLLIVARGGGSLEDLWGFNDEVVVRAVYESSLPVISAVGHETDWTLIDYVADWRAPTPTAAAEKAVPVKIDLEVYVVSLGARLRTGLARYFDFHQQKLRAIIRALPTADQLFALPRRGFDEISSRLERALCVSCDKKRLYFHTLAIRFTPRLLNTEKAQHSAKEYTARLHRAFVHIVEKQRAQLEIAFRLLKSTSYQNILERGFVLALGQNNKPIKRLAQIPEKEQINLRFFDGEISVITQESFFNRSSKSKRIKSKQDDQGTLF | not soluble |
| MSSNLTSNEMSSTSAIVEPPEAVKGNERDKSTRRSTSQVVRPEKHEVENALEDQCSSSSLPKEAQYYAKLDKKLEGKDPRSQFYEAVRLSADIFAHKFEKAVCSRQTFEPTNSIIKVLNTAEEEMLHEKVVPLPVSSKLQYYLNRGRYDTIFDRDEQLQRTADPMADEPDHVEKRVTSILEQASREMEEGEVEPVFYDGSDEDQELPIDLGAMRNLQRTNKFAARSSRMAARRGGRPGYRGAFRGAARGAPSRRPAPAAEVAPETPVAAPMAPAAPAAPATPEAAPAAEVMDTSIATEMPQESAVDLSNVSAATEMDTSKEGEASRPTSEKKKKIRTTEMDRLMSMDLGPKDGGRVGELGHMWPESRRRPAAPLPETPAAQPRKSLPRRAAEKKKPEDSDAAEEQEVEMEVDNDASTSTPRNARGGRGGGNRRGSRRGQKRTSGGSGKLVEPKKEPVDEPAEKIPKRSEAAPEVPATATTKEAPPSTSSSPPDAPATPATPASSDSRDSPRKIRAMIFSLTGSPPESETPPVLQQEQVISTAAPTAGRHPNIIQQVPHINRIPPQPLRRLTAPQAPPASQPEEPPVQQTVPVVKVELASAPAPIVRDPQSTEPVPPAMPTLVENNHEATLILPPNKTSDYTRWNAQDLINWVRLLITNNVDSTIAIMVREEFDGETLACLVLDDDFRKEVPIPYGHYKKMKIYGTEVLNHYRTEKYQADLRKFHEELAAWKAQQR | not soluble |
| FFFTVAFLLVFSIAGLVEILPDFAKASRPTENLKPYSMLETAGRQLYIKESCNACHSQLVRPFKSETDRYGAYSLSGEYAYDRPFLWGSKRTGPDLHRVGDYRTTDWHENHMMDPTSVVPGSIMPAYKHMFKNAADIETAYAEAYTNKVVFGVPYDQPSGIKLGSFEEAKAAMFEEAKLIVEDMKNQDVKDALARGEIKEIVALIAYMNSLGQ | not soluble |
| MGSDKIHHHHHHMKKKNTTPTPHDATFRQFLTQPDIARDFMELHLPAELRAICDLSTLKLESGSFVEDDLRQYFSDVLYSLKTTAGDGYIHVLVEHQSTPDKHMAFRLIRYAVAAMQRHLEAGHKKLPLVIPVLFYTGKRSPYPYSTRWLDEFDDTALADKLYSSAFPLVDVTVIPDDEIAGHRSMAALTLLQKHIHQRDLAELVDRLAPILLAGYLSSSQVISLVHYIVQAGETSDAEAFVRELAQRVPQHGDALMTIAQQLEQKGIEKGIQLGEQRGIEKGRSEGEREATLKIARTMLQNCIDRNTVMKMTGLTEDDLAQIRH | not soluble |
| GDLSNYFSNLSRLNCPQTIMTFRLFDPGFPFTDIEVNADIVLDRDAEKLPENWLQQLTGLSDTDVSMTAKGNVLSGQFLLPDFNLKLQDKSHAYLLLQGMDLEEVLRIQPQIGIYANGLFDGVLPVDLVDGKVSISGGQLAARAPGGLIAISGNPAVDQMRQSQPYLDFVFSALEHLAYSQLSSSFDMDNTGDATLLVEVKGRSQGIERPIHLNYSHEENMLQLFRSLQIGNDLQNRIEK | not soluble |
| VYDNDIDTGAKNTLNLDEELQLGELSLDTIRSLEKLAPFGMDNKKPVFWLHDITVTQARTMGQNGAHLKFKVKQGKASFDVVAFNKGHLLQEFQQAQGLELAVTLSVNVWNGQTTLQ | not soluble |
| CPQEDSDIAFLIDGSGSIIPHDFRRMKEFVSTVMEQLKKSKTLFSLMQYSEEFRIHFTFKEFQNNPNPRSLVKPITQLLGRTHTATGIRKVVRELFNITNGARKNAFKILVVITDGEKFGDPLGYEDVIPEADREGVIRYVIGVGDAFRSEKSRQELNTIASKPPRDHVFQVNNFEALKTIQNQLREKIFAIGSPGI | soluble |
| MSDATNNAVLVRNLSPEVTKQTLLDFFSFCGEISAVKIRPSVGEGGSSSSGSPTEAMEALVIFENQSAKKTALVLDSATLKKRKISVMDATEELVSSFKDVREVDLARDSTDVPETATARQERLQGLREEFDRAIKRASDKLSDFNEKHRITEKVQEFGDLTKRKTQEINEQYRLTERAREGWQTVREKTRELDERLHLSESARDGWRSLKASVSKIMQKDRGGEVDKA | soluble |
| MKIAIFSKLTIKEDEIRKKLGNYDVDIFPPIKRGDLTSEKIFDYDIIGIIDGCFLQSTAVAHREILKVIENNITVFGAGSMGALRASELDTCGMIGVGLVYNLYKNGIISDDDEVAVTFDDNLNQITFSMISFREMIKNALNEKIIDEDDSKRLINSGKELYYPLRTFENVIEKSKISGEKREVLEKFLKNQPDIKRNDAFEMLEEIIKYIEKQ | not soluble |
| MEVFVFTPKGDLYKMPKGATVLDFAFAIHSKLGSKCIGAKVNGKNAQLKQTLNSGDQVEVMTSNTQTPKLEHHHHHH | not soluble |
